test: soluble fraction after stress (log2 fold change); higher = more stays soluble; pooled small domains, quantitative proteomics; conditions: stress: pH 4
Summary of the method: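 Pooled custom libraries of small protein domains were stressed at pH 4 and then measured by high-throughput quantitative proteomics. The fold change in the amount of each domain that stays soluble after the acid stress serves as a measure of aggregation propensity. Fold changes are given on a log2 scale, and higher values mean more of the domain stayed soluble.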

| Sequence | soluble fraction (log2) |
| --- | --- |
| HMANPMFAEIKKVQKQLNEMGYQAGPADGLWGNKTENAVKLLLSDNNLKWDGTFDQNEIKIIEEIFLSND | -0.257 |
| HMANPRLEYFLSNITPDWNEFSPELKNQLLIENADPYKLEQYILQVSPDMYIEEQNAPGTVRQMAGDITG | -1.54 |
| HMANSANARKSLVSKLIAGGKIASQSDLVKALKKQGIVVTQGTASRDLEDIGAIRVRNSEGEIVYALT | 0.108 |
| HMANSDEEVLNKISTKAPTFNELINKIKEFDDTKEINDIWLDVYRYYITDEEYKEIAKKVITGLTYTNQ | -0.544 |
| HMANSLLVTAQAGGQKLFNFLKRSLHAENNEIHRWIRTGQVRINKKRTKAFDIVHENDEIRIPPFALNR | -0.053 |
| HMANSREIPKLAGIEQEEAVKQLLDLDLKPVIEEITDDDTDAGDVVRTDPAAGEHVAVDTEITVFISIG | -0.192 |
| HMANVQLAKNLKTLRKKYNYTQQDVSTFLNITRQAYSHYEQALREPDLNTLVHLSRFYQVTLDELI | -1.6 |
| HMANYHDIAADLRSKINHGFYEEEKKLPKQSELAADYQTSRVTIQKALNILQMEGIIYGKKGTGTFIRDSY | 0.0346 |
| HMANYTVNAYNNGGTGGSVNMRSGPSTNDGIVVRVPHGATVTGTKSGTWSYMTYNTYTGYMMSVYLDEQS | -0.0556 |
| HMAPAPYLVKVTANKLNIRSGPGTNYKIQGAITDKGTYTIVDTQGRWGKLKSGAGWIYLNYTKK | 0.22 |
| HMAPASADQLIDQLNEKVKAKDDKGVAALLTAAQTKMAELAQKDPKEAQAYVAKLQQWMQSNSENIKAALK | 0.204 |
| HMAPAYELTEEETKIIEILKANENIDLNELKSQAALSGKKWDKSMKNLAKYNLTKVTVDGDAKTVAYLA | -0.516 |
| HMAPELSGEKLWDAQDVAMFLRVKPTTVWSYVSRDGFPAPVSQAGRAGMWSEPLVVQWYLSRPG | -0.16 |
| HMAPEPFILSVDADGKYYIDDLEKTKQEILIYATALYQEKPTTDFLVRGDKSAAYNDVLQAMVVLKE | 0.171 |
| HMAPETALQILEQIQINPKVTMTDLANLTGYSRRWVAQTMKQLQELNVIKRVGSTKTGYWEIIA | -0.142 |
| HMAPGSKAEIPEDLMKVINKDPKMKAFVATLNKANIMAISFRLSTAKKPETRERRFNLILETLKRGEKF | -0.644 |
| HMAPKVTLNETETAIFEKMQQEKQLLLSELRTHFDISNKLWDTSIKTLTKNQLLTVSKEADLLWIKL | -0.935 |
| HMAPLAVIFPEPWRGMIAPEKLEGLTQALSLNPRPGYQHDPTRRYGVSLDGLDVRFTIDGDTLTVVEVVT | -1.12 |
| HMAPNKLQQQEVWTKALPLLQQMIMTIRQIDAAGGDSSPERELLEETAARFDETLDVERFLP | -0.774 |
| HMAPPPLAGAREALREQIRRGSLSARRGFDAYADALGLPAGTRGAHPIFAALQRLDYPQALRLLDQEPT | -0.108 |
| HMAPQVKIPNLVDVSQRQAEAILNSYGLKVGHLIYKPDLAKDAVLGFMFNGRSLKAGDELAKGSSIDLILG | 0.192 |
| HMAPRDKADKYVAAGIAEELVPILQKVGYYLVTDLKDVKAQKIQQQIGEIIKKYKLDIEKPSVQDIEGWN | -0.259 |
| HMAQDIEQLEKAVSFYTRMDPAAAALSITNLDQKTAVNILMRMKDKQASAVLESMTAERSSELIDSIARK | -0.863 |

| Sequence | soluble fraction (log2) |
| --- | --- |
| HMAQELPYEKVTMNGKMFYVYHVKAGEGLYLISRTFSVNADEILKFNPSIENGLKSGQVLYIPIK | -0.403 |
| HMAQISDESALYDLVKSVLDANPQSIADYKAGRDRALGFLMGQAMKLSKGKANPPVINKILKEMLDK | 0.292 |
| HMAQKQLYIAGTDYTKNSTSQLVLAYFPAKPSSIKIFFDGIYQNKDKWSLFGKTIIFGLPISSNAVEVHYE | -0.201 |
| HMAQLPADLSKVKSSQISDQQLTQIAQQAKNSGQSEQAVLQELKQRGLPDTEIQALGARISGLMQ | 0.404 |
| HMAQLVVTVDKLNKRTAIPVTLSDKSSNDSVVEKGFRFEGFPFVNTATNGKKWYKDREGFFYWAGGLMEEA | -0.0297 |
| HMAQMDDPEMVLHIYNKMIQQRLFDTAVGYSYLKDLQEYLQSIPFIRKEDIFPIPVQHPQVEESLRKAK | 0.0635 |
| HMAQTSAELIIEYLKRNDGFMELTDKSPADEIYETFGISKKNFKMAVGSLYKNRVIEIGQNGIRLVE | -0.0445 |
| HMAQTTKWREIHKVKRKETIFGIARDNGLTVDELIEANPEMTKPGYELKKGDFIYIPFPSKNIDTNAGTQT | -0.627 |
| HMARAESYGDIARLEQLLDEHANIAALDPGKLPAVRQQIWTLMRAARMDHDLGLAERPEDDSFDDMLLHV | -0.0475 |
| HMARAPIYPDGLTQREVEVLSLVAAGKTDREIAEELFIALRTVTTHVGNILNKIGAANRTEAAGYATRQGL | -1.4 |
| HMARAVSPLEAIPGVGPRRRQQLLKQLGGMQEVARAGVEDLSRVPGISRALAQQIYDAFHGD | 0.0348 |
| HMARDPWDVLGVAKTATNDEIKRAFKRQAMMTHPDKQGGSEERFKEVNEAYSHIKDEQSRAKYQNSQ | 0.0164 |
| HMARDSYNGVQRTISTLLGQGNYDRAYDVAVGARGQMSKQQWSDVAKRIYEVSGIKIDDSVKY | -0.0224 |
| HMARRSRADAVRNREALIDAAKAAFTEAGPDVSLEEIARRAGVGIGTLYRHFPTRDAVIEAVYR | -0.206 |
| HMARRTPPPTVSELNALLRVAAPHIQRVILLGIYTGARIGPSELFSLKWDDVDLTRGVIGIRL | -0.39 |
| HMARTDVKLREVAQELLRMGLLEESLRPHLYRTALASMERLNATLEPLDLIARADEIRGLVFLAVRH | -0.548 |
| HMARVSGIDLPKNKRGYIGLTYIYGIGRSTALHILNSAGVDPEKKVHEWNDDETTAIRNIINAEIKVEGAL | -0.248 |
| HMASAKTVAQSGTYKFAKTTAIKSSASDAASTVGTYYKGNTVNYNAKVTTNGQTWLRYTSYSGAQYYVKVS | 0.218 |
| HMASANMPDVLGLDAETAKQVLAAKGFTKVEIYPMESSEPANRVVRQSEDRDTMVALTKEILLGVSNGS | -0.0377 |
| HMASENISYSQFINQVKNSMVESVSIEADGKTISGKYKSGSSFVTYGLNDPKLVDDLLSNNVEIL | 0.0122 |
| HMASGLITEEQAKSKALAHAGLSASQVNFIWVKQDWEDGRRVYEVEFYTDDYQEYDYEIDARTGEILSFDY | -1.06 |
| HMASIGTATVTADNLRLRSEAGTGAETLTMAPKGAEVTVEEDAGDGWYKVTYGDTEGYMSGEWLKITLA | -0.0742 |
| HMASLIGEEKALQIALEHAGVALENVAYSQVKLENDDGRWEYDTEFYSGSKEYDYEIDASTGEILGYDHD | -0.0579 |

| Sequence | soluble fraction (log2) |
| --- | --- |
| HMASLSITVNGETRRAAPGSIADLVRAIGLDPAKVAVERNGEIAPRSTLADVALADGDVLEIVHFVG | 0.147 |
| HMASMEDILAEAKTKFQEGDLFKSVNEGIQGTHKLTLPLRIKESRIVDASGAAVYREGIWATVDK | 0.185 |
| HMASMNPVWLEFPNIPWGSAGWRMGWGEDYMRRWAKWYISLAEVERQSYKSDWPEPQEWEGFYAFMEHGT | -1.23 |
| HMASPEIAFLNKFYQLSNTVNEISVMKIVKNYQEKYQQRISIEQMAKTLKTMGYAVRNNIISNIEEAPV | 0.0906 |
| HMASPRVWKDASSGRTLTGEFVELTKDAVKVRRANGDVVSLPLSRLTEEDITFAKGASETGGA | 0.0565 |
| HMASVLTAKLSEREVDVLNLLARGFTNADIAAQLHLSEGTVRNHVSTIFAKLDVNDRTQAAVIAIRHGL | -0.176 |
| HMASVLTGMLGRVTGELAPKGIVMVGNETWTAVSEDDSVIRIGEPVEVRSVEGLILTVFRRID | -1.55 |
| HMATAADLLQSATGVPRSDALLLLAKLLGVAKERLIAHPETVVSEKTQATFSDWIERVRGGFPTTYLLG | 0.0658 |
| HMATAEETTPLWARNRLSHAIFGPGSVTGEDERSFEVAFDNGDTLNFSKKSAHLYFTAMSSR | -0.808 |
| HMATARPPPPPESRVEVLFDGRWYAGTVVGGALDEHRATVFFDADRLSQVINFAETGIRVLGT | -0.575 |
| HMATEYIIPTVTNKKLEEAIGIAQLRGFEISVDEYKPSDIDEGTVLEQSPAAGTNAKQGDTISVTVSSG | -0.103 |
| HMATFTPYLVRITASVLNIRKGPGTTYAVTGQIKDRGVYTIVEQKGNWGRLKSGAGWISLSYTKK | 0.065 |
| HMATPAFEMYKVRRGDTPAGLAKEWGFPDMASFYRINPDARSDWKRGLQLVKPMNEMAVLQATA | 0.109 |
| HMATPKYMELVRWINEQIESKNLVPGQKMYSENTLKEMFGVSRQTVRHAIGVLENEGVIRRIQGSGTYIN | 0.163 |
| HMATPSTGQVSVVRLNLRVSPSISSPVVTRLTQGDTVKILAASDDGRWYKVATADGRTGWLYTIYITAE | -0.209 |
| HMATQTGTVKWFNEGKGFGFIAPDDGSKDLFAHFSEIKTTGFKTLAEAQRVEFEVTEGRKGLQASNIK | -0.244 |
| HMATRLPFGFAKRFGVLVEGKDDQITVYHKDGLQTAVILEIQRYLARPFRFEAVTPEEFERRLGLAYQS | -0.927 |
| HMATSNDTQITGSLALRFDGSGDTFTVNVNGDDKLEINTEGTVIYKPLTTAPTYVSGGLFFSSSGDFYVG | -0.163 |
| HMATTIDFTVGDDVQVMNGPLESFTGKVTELNEASQKVKVDVVMFGRVTNVELDFVQVKKIT | -0.531 |
| HMATTIEAPMPGKILDVKVNPGQAVSYGQVVLTMEAMKMETEIVAPADGTVASVLVKSGDMVETGAALVSL | -0.268 |
| HMATTMSADWRPSEDAVGILVNAEINARFIEDAIPEFVLYWRERGAVHGAWNSKFIEHIRRQWAKFSAS | -1.31 |
| HMATTPEETILEYINKNNRISKQEIADLMGITRDGVSYHIKKLRKNGLLEWIGSPSNGHWEIIE | -0.52 |

— the domain aggregation screens of Martell et al. (2025)
